The results in this text go back to publication PMC7027902.

Experiment [1] deals with soluble biotinylated cognate peptide-MHC of the DMF5 TCR. The experiment can be described thus: BLI; Octet RED96; biotinylated pMHC (5 µg/mL) loaded on streptavidin tips; TCR in twofold serial dilutions from 200 nM, 900 s association, 600 s dissociation; PBS with kinetic buffer; 1:1 binding model. For orientation: Biolayer interferometry detects binding as a change in optical thickness at a sensor tip.

Experiment [2] addresses soluble biotinylated cognate peptide-MHC of the A6 TCR. The experiment is described as above.

On to “wild-type DMF5 TCR (soluble α/β heterodimer)”, for which, in experiment [1], the equilibrium dissociation constant (Kd) (commonly the concentration at which binding is half-saturated) amounted to 31.6 nM and the koff (in general, the rate constant with which the complex falls apart) stood at 7.4e-05 s⁻¹.
In experiment [2], “wild-type high-affinity A6 TCR (soluble α/β heterodimer)” yielded a Kd of 8.3 nM and a dissociation rate constant (koff) of 0.000416 s⁻¹.
